From paper PMC7078148, “Interactions of 17β-Hydroxysteroid Dehydrogenase Type 10 and Cyclophilin D in Alzheimer's Disease” (Neurochemical Research, 2020)

Target: T1, human full length recombinant 17β-hydroxysteroid dehydrogenase type 10 protein (His tag) (human, UniProt Q99714 1-261)
T1 construct: 17β-hydroxysteroid dehydrogenase type 10, human, full length recombinant protein; The tetramer was not measured here; The His tag and 'full length' are stated only in the co-immunoprecipitation methods; The SPR reagent is described as human recombinant protein from the same supplier, with no catalogue number; also called 17β-HSD10; ERAB; source: bought: Fitzgerald (Fitzgerald Industries …)
T1 sequence (looked up): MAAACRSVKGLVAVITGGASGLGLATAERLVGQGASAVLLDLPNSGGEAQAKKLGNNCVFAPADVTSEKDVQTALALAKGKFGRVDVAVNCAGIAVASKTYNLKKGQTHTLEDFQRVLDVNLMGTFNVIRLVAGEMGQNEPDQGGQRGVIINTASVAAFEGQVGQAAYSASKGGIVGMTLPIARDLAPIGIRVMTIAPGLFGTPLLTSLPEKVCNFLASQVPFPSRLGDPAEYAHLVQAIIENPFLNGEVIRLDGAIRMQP
Assay: SPR; cypD captured (response 1.5 nm) on amine-coupled anti-cypD antibody; 17β-HSD10 at 6, 10, 30, 60 and 100 nM injected 10 min, dissociation 15 min; HEPES 10 mM pH 7.4 with 250 µg/ml BSA, 15 mM KCl, 0.1 mM MgCl2; 25 °C, 20 µl/min; reference channel without cypD subtracted; global fit, 1:1 Langmuir model with mass transport
Settings: both partners purified

B1: human full length cyclophilin D protein (His tag) (enzyme)
chain: not shown
notes: cyclophilin D (mitochondrial peptidyl-prolyl cis-trans isomerase F), human, full length recombinant protein; The His tag and 'full length' are stated only in the co-immunoprecipitation methods; also called cypD; PPIF; source: bought: Fitzgerald (Fitzgerald Industries International), recombinant
Kd: 0.35 nM
koff: 5.8e-05 s⁻¹
